Assays:
Assay type in all cases: biochemical
rHDL-apoA-I = assay: Stimulation of enzymatic activity of human PON1 192 isozymes by rHDL-apoA-I; details: all the lactones tested; rHDL/PON1 ratio of 50
Description: FIGS. 5A-B are graphs showing the inactivation and catalytic stimulation of the human PON1 192R/Q isozymes. FIG. 5A is a line graph showing the inactivation kinetics of human PON1-192R and -192Q in the presence of rHDL-apoA-I. The delipidated isozymes (0.2 μM) were incubated with a 50-fold molar excess of rHDL-apoA-I in activity buffer, and subjected to inactivation by NTA and β-mercaptoethanol (each at 5 mM) at 25° C. Residual activity determined as above (FIG. 1) and data were fitted to a double-exponential function. FIG. 5B is a bar graph showing stimulation of the enzymatic activity of human PON1-192R and -192Q by rHDL-apoA-I. The delipidated isozymes were incubated with a 50-fold molar excess of rHDL-apoA-I, and enzymatic activity was determined with various substrates (at 1 mM for all the substrates, except TBBL at 0.25 mM). The activity is presented in relation to the initial activity of the delipidated enzymes (percentage of stimulation). […]
Human PON1-192R and Q isozymes purified from pooled blood samples [Gan, K. N., et al., Drug Metab Dispos, 1991. […] Stimulation of enzymatic activities was measured with various substrates at 1 mM concentration, except for TBBL (0.25 mM).
HDL-mediated stimulation of the enzymatic activity of human PON1 isozymes was determined by incubating PON1 with the highest rHDL-apoA-I concentration (corresponding to the rHDL/PON1 ratio of 50) (FIG. 5B). […]

apoA-I rHDL = assay: Inactivation kinetics of human PON1 192 isozymes on rHDL-apoA-I (NTA/β-mercaptoethanol); details: 50-fold molar excess rHDL-apoA-I; NTA and β-mercaptoethanol each 5 mM, 25° C.
Description: FIGS. 5A-B are graphs showing the inactivation and catalytic stimulation of the human PON1 192R/Q isozymes. FIG. 5A is a line graph showing the inactivation kinetics of human PON1-192R and -192Q in the presence of rHDL-apoA-I. The delipidated isozymes (0.2 μM) were incubated with a 50-fold molar excess of rHDL-apoA-I in activity buffer, and subjected to inactivation by NTA and β-mercaptoethanol (each at 5 mM) at 25° C. Residual activity determined as above (FIG. 1) and data were fitted to a double-exponential function. FIG. 5B is a bar graph showing stimulation of the enzymatic activity of human PON1-192R and -192Q by rHDL-apoA-I. The delipidated isozymes were incubated with a 50-fold molar excess of rHDL-apoA-I, and enzymatic activity was determined with various substrates (at 1 mM for all the substrates, except TBBL at 0.25 mM). The activity is presented in relation to the initial activity of the delipidated enzymes (percentage of stimulation). Each bar represents the mean and S.D. of at least two independent measurements;
Human PON1-192R and Q isozymes purified from pooled blood samples [Gan, K. N., et al., Drug Metab Dispos, 1991. 19(1): p. 100-6] were kindly provided by Dr. Dragomir Draganov (University of Michigan, Ann Arbour), and stored in presence of 0.1% tergitol and 20% glycerol. Prior to assay, these samples were briefly delipidated [Gaidukov, L. and D. S. Tawfik, Biochemistry, 2005. 44(35): p. 11843-54] and dialyzed against activity buffer to remove the tergitol and glycerol that interfere with HDL binding. Dialyzed samples (0.2 μM) were incubated with rHDL (10 μM). Stability assays were performed at 25° C., in activity buffer supplemented with nitrilotriacetic acid (NTA) and β-mercaptoethanol, both at 5 mM. Data analysis was performed as described above for rePON1s. Stimulation of enzymatic activities was measured with various substrates at 1 mM concentration, except for TBBL (0.25 mM).
The progress of inactivation of human PON1 isozymes anchored on rHDL-apoA-I is illustrated in FIG. 5A. Inactivation of both isozymes followed a two-phase kinetics with similar inactivation rates, but different partitioning between the HDL-bound and unbound phases, as detailed in Table 4 hereinbelow. Amplitudes (A) and kinetic rates of inactivation (k^inactiv) were derived by fitting the data to a double-exponential curve.

[1] = Dihydrocoumarin hydrolysis by PON1 isozymes (Vmax); details: Vmax^Q=1.125*Vmax^R
Description: Determination of a total PON1 level may be effected by any method known in the art. For example, the level of total PON1 may be determined using an antibody specific for PON1. Preferably, the level of total PON1 is determined by measuring the level of total enzymatically active PON1. Thus for example, the level of total PON1 may be measured using an ELISA assay. Such assays are known in the art—see for example Blatter et al, Biochem J 304 (Pt 2): 549-554. An exemplary method for measuring total PON1's serum concentration comprises assaying PON1 dihydrocoumarin hydrolysis as described in Example 3.

Molecule	fold higher activation level than 192Q (rHDL-apoA-I)	A2(%) (slow phase, HDL-bound fraction) (apoA-I rHDL)	k1^inactiv (first, fast phase) (apoA-I rHDL) [h⁻¹]	k2^inactiv (second, slow phase) (apoA-I rHDL) [h⁻¹]	ratio of Vmax of PON1-192Q and -192R isozymes toward dihydrocoumarin [1]
human PON1-192R: human PON1 192R isozyme purified from pooled blood samples (protein) AKLIALTLLGMGLALFRNHQSSYQTRLNALREVQPVELPNCNLVKGIETGSEDLEILPNGLAFISSGLKYPGIKSFNPNSPGKILLMDLNEEDPTVLELGITGSKFDVSSFNPHGISTFTDEDNAMYLLVVNHPDAKSTVELFKFQEEEKSLLHLKTIRHKLLPNLNDIVAVGPEHFYGTNDHYFLDPYLRSWEMYLGLAWSYVVYYSPSEVRVVAEGFDFANGINISPDGKYVYIAELLAHKIHVYEKHANWTLTPLKSLDFNTLVDNISVDPETGDLWVGCHPNGMKIFFYDSENPPASEVLRIQNILTEEPKVTQVYAENGTVLQGSTVASVYKGKLLIGTVFHKALYCEL	about 2 fold	87	0.4	0.01	–
human PON1-192Q: human PON1 192Q isozyme purified from pooled blood samples (protein) AKLIALTLLGMGLALFRNHQSSYQTRLNALREVQPVELPNCNLVKGIETGSEDLEILPNGLAFISSGLKYPGIKSFNPNSPGKILLMDLNEEDPTVLELGITGSKFDVSSFNPHGISTFTDEDNAMYLLVVNHPDAKSTVELFKFQEEEKSLLHLKTIRHKLLPNLNDIVAVGPEHFYGTNDHYFLDPYLQSWEMYLGLAWSYVVYYSPSEVRVVAEGFDFANGINISPDGKYVYIAELLAHKIHVYEKHANWTLTPLKSLDFNTLVDNISVDPETGDLWVGCHPNGMKIFFYDSENPPASEVLRIQNILTEEPKVTQVYAENGTVLQGSTVASVYKGKLLIGTVFHKALYCEL	–	72	0.6	0.01	1.125
